# Data taken from publication PMC11362210, “N-carboxyacyl and N-α-aminoacyl derivatives of aminoaldehydes as shared substrates of plant aldehyde dehydrogenases 10 and 7” (Amino Acids, 2024).
# B1: PsAMADH (native pea aminoaldehyde dehydrogenase, prevailing isoenzyme 1) (Lathyrus oleraceus) (protein)
# chain: MAITVSSRQLFIDGEWRVPILNKRIPNINPSTENIIGDIPAATKEDVDLAVDAAKRAISRKNGRDWSAASGSLRARYLRAIAAKIKEKKDELGKLESIDCGKPLEEALADLDDVVACFEYYAGLAEELDSKQKAPISLPMDTFKSYILKEPIGVVALITPWNYPFLMATWKIAPALAAGCAAILKPSELASVTCLELGEICKEVGLPRGVLNIVTGLGHEAGASLASHPDVDKISFTGSSATGSKIMTTAAQLVKPVSLELGGKSPIVVFEDVDLDKVAEWTVFGCFFTNGQICSATSRLIVHESIAVEFVDKLVKWAENIKISDPLEEGCRLGPIVSEAQYKKVLNCISSAKSEGATILTGGRRPEHLKKGYFVEPTIITDVTTSMQIWREEVFGPVLAVKTFSTEEEAINLANDTHYGLGSAVMSNDLERCERLSKALQAGIVWINCAQPSFIQAPWGGIKRSGFGRELGEWGLENYLSVKQVTRYTSDEPWGWYQPPSKL
# notes: native, purified from 7-day-old etiolated pea seedlings
# B2: ZmALDH7 (Zea mays) (protein)
# chain: MGAFAKEEHQFLAELGLAQRNPGAFACGAWGGSGPTVTSTSPTNNQVIAEVVEASVHDYEEGMRACFDAAKTWMAIPAPKRGEIVRQIGDALRAKLHHLGRLVSLEMGKILPEGIGEVQEIIDMCDYAVGLSRQLNGSIIPSERPNHMMMEVWNPLGVVGVITAFNFPCAVLGWNACIALVCGNCVVWKGAPTTPLITIAMTKIVASVLEKNNLPGAIFTSFCGGTEIGQAIALDIRIPLVSFTGSTRAGLMVQQQVSARFGKCLLELSGNNAIIVMDDADIQLAVRSVLFAAVGTAGQRCTTCRRLILHENIYQTFLDQLVEVYKQVRIGDPLEKGTLLGPLHTPASKENFLKGIQTIKSQGGKILFGGSAIESEGNFVQPTIVEITPSAPVVKEELFGPVLYVMKFQSLKEAIEINNSVPQGLSSSIFTKRPDIIFKWLGPHGSDCGIVNVNIPTNGAEIGGAFGGEKATGGGREAGSDSWKQYMRRATCTINYGSELPLAQGINFG
# notes: recombinant
# B3: PsALDH7 (Lathyrus oleraceus) (protein)
# chain: GSDSNNLGFLKEIGLGATNIGSFINGQWKANGPTVHSVNPSTNQVIASVTEATLDDYEEGLRASSEAAKTWRTVPAPKRGEIVRQIGDALRAKLDPLGRLVALEMGKILAEGIGEVQEIIDMCDYSVGLSRQLNGSIIPSERPEHMMFEVWNPLGIVGVITAFNFPCAVLGWNACIALVGGNTVVWKGAPTTPLITVAVTKLIAEVFERNNLPGAIFTALCGGADIGHAIAKDTRIPLVSFTGSSKVGALVQQTVSQRFGKTLLELSGNNAIIVMDDADITLAVRSIFFAAVGTAGQRCTTCRRLYLHESVYANVLEQLTALYKQVKIGNPLEEGTLVGPLHTRSAVENFKNGISAIKSQGGKIVTGGSVLESEGNFVVPTIVEISADAAVVKEELFAPVLYVMKFKDLEEAIALNNSVPQGLSSSIFTQKPSTIFKWIGPSGSDCGIVNVNIPTNGAEIGGAFGGEKATGGGREAGSDSWKQYMRRSTCTINYGSELPLAQGINFG
# notes: recombinant
# Tests used:
# Assay in all cases: purified protein
# [1] = substrate: NCCC=O; type: biochemical, Lathyrus oleraceus; conditions: 1 mM NAD+, 0.15 M Tris-HCl, pH 9.0
# [2] = substrate: NCCCC=O; type: biochemical, Lathyrus oleraceus; conditions: 1 mM NAD+, 0.15 M Tris-HCl, pH 9.0
# [3] = substrate: N[C@@H](Cc1ccc(O)cc1)C(=O)NCCCC=O; type: biochemical, Lathyrus oleraceus; conditions: 1 mM NAD+, 0.15 M Tris-HCl, pH 9.0
# [4] = substrate: N[C@@H](Cc1ccccc1)C(=O)NCCCC=O; type: biochemical, Lathyrus oleraceus
# [5] = substrate: O=CCCCNC(=O)CCC(=O)O; type: biochemical, Lathyrus oleraceus; conditions: 1 mM NAD+, 0.15 M Tris-HCl, pH 9.0
# [6] = substrate: O=CCCCNC(=O)CCCC(=O)O; type: biochemical, Lathyrus oleraceus; conditions: 1 mM NAD+, 0.15 M Tris-HCl, pH 9.0
# [7] = substrate: O=CCCNC(=O)CCC(=O)O; type: biochemical, Lathyrus oleraceus; conditions: 1 mM NAD+, 0.15 M Tris-HCl, pH 9.0
# [8] = substrate: O=CCCNC(=O)CCCC(=O)O; type: biochemical, Lathyrus oleraceus; conditions: 1 mM NAD+, 0.15 M Tris-HCl, pH 9.0
# [9] = substrate: N[C@@H](CCCC=O)C(=O)O; type: biochemical, Zea mays; conditions: 2.5 mM NAD+, 0.1 M sodium pyrophosphate, pH 8.1
# [10] = substrate: N[C@@H](Cc1ccc(O)cc1)C(=O)NCCC=O; type: biochemical, Zea mays; conditions: 2.5 mM NAD+, 0.1 M sodium pyrophosphate, pH 8.1
# [11] = substrate: N[C@@H](Cc1ccccc1)C(=O)NCCC=O; type: biochemical, Zea mays; conditions: 2.5 mM NAD+, 0.1 M sodium pyrophosphate, pH 8.1
# [12] = substrate: N[C@@H](Cc1ccccc1)C(=O)NCCCC=O; type: biochemical, Zea mays; conditions: 2.5 mM NAD+, 0.1 M sodium pyrophosphate, pH 8.1
# [13] = substrate: O=CCCCNC(=O)CC(=O)O; type: biochemical, Zea mays; conditions: 2.5 mM NAD+, 0.1 M sodium pyrophosphate, pH 8.1
# [14] = substrate: O=CCCNC(=O)CC(=O)O; type: biochemical, Zea mays; conditions: 2.5 mM NAD+, 0.1 M sodium pyrophosphate, pH 8.1
# [15] = substrate: N[C@@H](CCCC=O)C(=O)O; type: biochemical, Lathyrus oleraceus; conditions: 2.5 mM NAD+, 0.1 M sodium pyrophosphate, pH 8.1
# [16] = substrate: N[C@@H](Cc1ccc(O)cc1)C(=O)NCCC=O; type: biochemical, Lathyrus oleraceus; conditions: 2.5 mM NAD+, 0.1 M sodium pyrophosphate, pH 8.1
# [17] = substrate: N[C@@H](Cc1ccccc1)C(=O)NCCC=O; type: biochemical, Lathyrus oleraceus; conditions: 2.5 mM NAD+, 0.1 M sodium pyrophosphate, pH 8.1
# [18] = substrate: O=CCCCNC(=O)CC(=O)O; type: biochemical, Lathyrus oleraceus; conditions: 2.5 mM NAD+, 0.1 M sodium pyrophosphate, pH 8.1
# [19] = substrate: O=CCCNC(=O)CC(=O)O; type: biochemical, Lathyrus oleraceus; conditions: 2.5 mM NAD+, 0.1 M sodium pyrophosphate, pH 8.1
# [20] = 1 mM NAD+, 0.15 M Tris-HCl, pH 9.0
# [21] = 2.5 mM NAD+, 0.1 M sodium pyrophosphate, pH 8.1
protein,measurement,setting,value
B1,Km,[1],136 ± 11 µmol/L
same,kcat,[1],3.36 ± 0.2 s⁻¹
same,kcat/Km,[1],24700 M⁻¹ s⁻¹
same,Km,[2],103 ± 17 µmol/L
same,kcat,[2],1.34 ± 0.07 s⁻¹
same,kcat/Km,[2],13000 M⁻¹ s⁻¹
same,Km,[3],174 ± 42 µmol/L
same,kcat,[3],0.22 ± 0.04 s⁻¹
same,kcat/Km,[3],1300 M⁻¹ s⁻¹
same,Km,[4]; [20],101 ± 10 µmol/L
same,kcat,[4]; [20],0.17 s⁻¹
same,kcat/Km,[4]; [20],1700 M⁻¹ s⁻¹
same,Km,[5],138 ± 6 µmol/L
same,kcat,[5],1.61 ± 0.07 s⁻¹
same,kcat/Km,[5],11700 M⁻¹ s⁻¹
same,Km,[6],427 ± 33 µmol/L
same,kcat,[6],1.49 ± 0.11 s⁻¹
same,kcat/Km,[6],3500 M⁻¹ s⁻¹
same,Km,[7],513 ± 36 µmol/L
same,kcat,[7],4.13 ± 0.2 s⁻¹
same,kcat/Km,[7],8100 M⁻¹ s⁻¹
same,Km,[8],506 ± 92 µmol/L
same,kcat,[8],1.29 ± 0.14 s⁻¹
same,kcat/Km,[8],2500 M⁻¹ s⁻¹
B2,Km,[9],191 ± 14 µmol/L
same,kcat,[9],0.77 ± 0.04 s⁻¹
same,kcat/Km,[9],4000 M⁻¹ s⁻¹
same,Km,[10],216 ± 56 µmol/L
same,kcat,[10],0.06 ± 0.01 s⁻¹
same,kcat/Km,[10],280 M⁻¹ s⁻¹
same,Km,[11],66 ± 12 µmol/L
same,kcat,[11],0.06 ± 0.01 s⁻¹
same,kcat/Km,[11],910 M⁻¹ s⁻¹
same,Km,[12],457 ± 55 µmol/L
same,kcat,[12],0.02 s⁻¹
same,kcat/Km,[12],44 M⁻¹ s⁻¹
same,Km,[13],1493 ± 225 µmol/L
same,kcat,[13],0.18 ± 0.01 s⁻¹
same,kcat/Km,[13],120 M⁻¹ s⁻¹
same,Km,[14],1997 ± 142 µmol/L
same,kcat,[14],0.15 ± 0.01 s⁻¹
same,kcat/Km,[14],75 M⁻¹ s⁻¹
B3,Km,[15],172 ± 32 µmol/L
same,kcat,[15],0.77 ± 0.09 s⁻¹
same,kcat/Km,[15],4500 M⁻¹ s⁻¹
same,Km,[16],252 ± 45 µmol/L
same,kcat,[16],0.09 ± 0.01 s⁻¹
same,kcat/Km,[16],360 M⁻¹ s⁻¹
same,Km,[17],74 ± 7 µmol/L
same,kcat,[17],0.07 s⁻¹
same,kcat/Km,[17],950 M⁻¹ s⁻¹
same,Km,[4]; [21],656 ± 55 µmol/L
same,kcat,[4]; [21],0.04 s⁻¹
same,kcat/Km,[4]; [21],61 M⁻¹ s⁻¹
same,Km,[18],703 ± 72 µmol/L
same,kcat,[18],0.13 ± 0.01 s⁻¹
same,kcat/Km,[18],180 M⁻¹ s⁻¹
same,Km,[19],2522 ± 203 µmol/L
same,kcat,[19],0.19 ± 0.01 s⁻¹
same,kcat/Km,[19],75 M⁻¹ s⁻¹
